This experiment concerns the target Fc-tagged receptor-binding domain (RBD) of the SARS-CoV-2 spike (S) protein (SARS-CoV-2) (UniProt P0DTC2). Description: BLI; Octet Red96e; Fc-tagged RBD loaded onto the biosensor (streptavidin biosensors as printed), Fab in solution; 1x PBS pH 7.4, 0.01% w/v BSA, 0.002% v/v Tween 20; 60 s association, 60 s dissociation; 1:1 binding model. In general terms: Biolayer interferometry detects binding as a change in optical thickness at a sensor tip.

“COV107-23 heavy chain paired with the light chain of COVD21-C8 (Fab)” returned a Kd of more than 1000 nM.

For the substance “COVD21-C8 heavy chain paired with the light chain of COV107-23 (Fab)”, the Kd was more than 1000 nM.

Broadly, the Kd is the concentration at which binding is half-saturated.

For the origin of these results see publication doi:10.1101/2021.01.26.428356.
